Data taken from PMC3326194 (Nature, 2012).

T1: corrinoid iron-sulfur protein (CFeSP) from Moorella thermoacetica (Moorella thermoacetica, UniProt Q07340 1-446; Q07341 1-323)
T1 sequence (looked up) 1: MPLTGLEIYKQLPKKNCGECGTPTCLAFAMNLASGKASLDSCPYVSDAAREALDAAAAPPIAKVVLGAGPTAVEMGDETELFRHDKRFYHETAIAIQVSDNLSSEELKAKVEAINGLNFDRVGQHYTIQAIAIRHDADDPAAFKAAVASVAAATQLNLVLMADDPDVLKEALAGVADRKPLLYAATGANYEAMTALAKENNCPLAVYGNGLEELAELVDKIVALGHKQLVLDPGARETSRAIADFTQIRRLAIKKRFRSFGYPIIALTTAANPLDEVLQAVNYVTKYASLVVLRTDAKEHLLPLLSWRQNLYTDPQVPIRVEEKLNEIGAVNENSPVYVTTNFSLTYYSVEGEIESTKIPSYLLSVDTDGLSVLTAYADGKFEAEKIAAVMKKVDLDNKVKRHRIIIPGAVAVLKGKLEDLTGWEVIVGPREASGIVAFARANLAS
T1 sequence (looked up) 2: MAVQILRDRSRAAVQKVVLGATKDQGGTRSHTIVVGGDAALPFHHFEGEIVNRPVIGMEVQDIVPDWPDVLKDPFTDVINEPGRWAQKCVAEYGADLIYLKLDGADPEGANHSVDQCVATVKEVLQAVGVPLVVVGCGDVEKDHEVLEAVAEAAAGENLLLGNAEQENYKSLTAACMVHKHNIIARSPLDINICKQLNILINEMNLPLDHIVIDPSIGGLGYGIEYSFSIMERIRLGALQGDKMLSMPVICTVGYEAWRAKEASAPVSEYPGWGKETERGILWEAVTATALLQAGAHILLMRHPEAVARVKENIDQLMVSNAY

T2: CFeSP large subunit from Moorella thermoacetica (Moorella thermoacetica, UniProt Q07340 1-446)
T2 sequence (looked up): T1 sequence (looked up) 1

B1: methyltransferase (MeTr) from Moorella thermoacetica (enzyme, UniProt Q46389 1-262, looked up)
chain: MLIIGERINGMFGDIKRAIQERDPAPVQEWARRQEEGGARALDLNVGPAVQDKVSAMEWLVEVTQEVSNLTLCLDSTNIKAIEAGLKKCKNRAMINSTNAEREKVEKLFPLAVEHGAALIGLTMNKTGIPKDSDTRLAFAMELVAAADEFGLPMEDLYIDPLILPANVAQDHAPEVLKTLQQIKMLADPAPKTVLGLSNVSQNCQNRPLINRTFLAMAMACGLDAAIADACDEALIETAATAEILLNQTVYCDSFVKMFKTR
B2: CFeSP small subunit from Moorella thermoacetica (natural protein, UniProt Q07341 1-323, looked up)
chain: T1 sequence (looked up) 2

Assays:
Experiment in all cases: crystal structure
[1] = target: B2
[2] = target: T1, corrinoid iron-sulfur protein (CFeSP) …
crystal structure = target: the molecule itself
[3] = target: T2, CFeSP large subunit from Moorella …

binding result [1] | binding result [2] | binding result [3] | Binder | stoichiometry N (crystal structure)
binds | binds |  | B1 | 2
 |  | binds | B2 | 
